Assay results published in patent US20170335016A1 (Kyowa Kirin, published 2017).

Biological target: T1, human-CD28-Fc fusion protein (human, UniProt P10747 19-152)
T1 construct: also called Fc fusion protein of the human-CD28 extracellular domain with IgG; hECD28-Fc
Experiment: ELISA, human-CD28-Fc coated at 1 µg/mL, culture supernatant, anti-human κ HRP detection
Description: The human-CD4O-Fc fusion protein and the human-CD28-Fc fusion protein were adjusted to give a concentration of 1 μg/mL using coating buffer (50 mM carbonate buffer, pH 9). To a well, 50 μL/well of the obtained human-CD4O-Fc fusion prostein or the obtained human-CD28-Fc fusion protein was added into the Maxisorp Plate (manufactured by Nalge Nunc International) respectively, and incubated at 4° C. overnight to be immobilized. Then, 200 μL/well of blocking reagent (SuperBlock (registered trademark) Blocking Buffer, manufactured by Pierce Protein Research) was added to the well, followed by incubation at room temperature for 30 minutes for blocking. Then, 50 μL/well of the culture supernatant comprising each antibody obtained in above Examples was added to the well followed by incubation at room temperature for 1 hour. After washing three times with Washing buffer (0.1% Tween20-TBS), Affinity Isolated Antibody HRP Conjugated Goat F(ab)₂ anti-Human κ (manufactured by EY Laboratories Inc) was diluted with assay diluent (0.1% Tween20-TBS containing Block Ace manufactured by Dainippon Sumitomo Pharma Co. Ltd. by 10%). Then, 50 μL of the obtained solution was added to each well followed by incubation at a room temperature for 1 hour. After washing three times with washing buffer, 50 μL of TMB (manufactured by Dako) coloring substrate solution was added to each well, followed by incubation in a dark room at room temperature. After developping color, 0.5 M vitriol (50 μL/well) was added to stop the reaction. The absorbance at the wavelength of 450 nm was measured with a microplate reader (SPECTRAMAX190, manufactured by Molecular Devices Inc).

T1 sequence (P10747 19-152): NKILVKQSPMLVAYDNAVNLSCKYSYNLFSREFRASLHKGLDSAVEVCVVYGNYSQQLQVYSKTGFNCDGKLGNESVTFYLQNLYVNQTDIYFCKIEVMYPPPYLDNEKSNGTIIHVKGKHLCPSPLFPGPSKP

| Binder | binding result |
| --- | --- |
| multivalent antibody 341VL34-CH1-341 (bispecific antibody, Anti-CD28 site N-terminal, anti-CD40 site C-terminal; Tested as culture supernatant; not shown: human immunoglobulin kappa light chain constant region) heavy: EVQLVESGGGLVKPGGSLRLSCGGSGFTFNNAWMNWVRQAPGKGLEWVGRIKGKTDGGTADYAAPVKGRFTISRDYSKNTLYLQMNSLTTEDTAVYYCNTDLPYYYGSGRYSGMDVWGQGTTVTVSSASTKGPSVFPLAPCSRSTSESTAALGCLVKDYFPEPVTVSWNSGALTSGVHTFPAVLQSSGLYSLSSVVTVPSSNFGTQTYTCNVDHKPSNTKVDKTVGSQVQLQQSGPGLVKPSQTLSLTCAISGDSVSSNSATWNWIRQSPSRDLEWLGRTYYRSKWYRDYVGSVKSRIIINPDTSNNQFSLQLNSVTPEDTAIYYCTRAQWLGGDYPYYYSMDVWGQGTTVTVSSASTKGPSVFPLAPCSRSTSESTAALGCLVKDYFPEPVTVSWNSGALTSGVHTFPAVLQSSGLYSLSSVVTVPSSNFGTQTYTCNVDHKPSNTKVDKTVERKCCVECPPCPAPPVAGPSVFLFPPKPKDTLMISRTPEVTCVVVDVSHEDPEVQFNWYVDGVEVHNAKTKPREEQFNSTFRVVSVLTVVHQDWLNGKEYKCKVSNKGLPASIEKTISKTKGQPREPQVYTLPPSREEMTKNQVSLTCLVKGFYPSDIAVEWESNGQPENNYKTTPPMLDSDGSFFLYSKLTVDKSRWQQGNVFSCSVMHEALHNHYTQKSLSLSPGK light: EIVLTQSPATLSLSPGERATLSCRASQSVSSYLAWYQQKPGQAPRLLIYDASNRATGIPARFSGSGSGTDFTLTISSLEPEDFAVYYCQQRSNTFGPGTKVDIK | binds |
| multivalent antibody 341-CH1-341VL34 (bispecific antibody, Anti-CD40 site N-terminal, anti-CD28 site C-terminal; Tested as culture supernatant; not shown: human immunoglobulin kappa light chain constant region) heavy: QVQLQQSGPGLVKPSQTLSLTCAISGDSVSSNSATWNWIRQSPSRDLEWLGRTYYRSKWYRDYVGSVKSRIIINPDTSNNQFSLQLNSVTPEDTAIYYCTRAQWLGGDYPYYYSMDVWGQGTTVTVSSASTKGPSVFPLAPCSRSTSESTAALGCLVKDYFPEPVTVSWNSGALTSGVHTFPAVLQSSGLYSLSSVVTVPSSNFGTQTYTCNVDHKPSNTKVDKTVGSEVQLVESGGGLVKPGGSLRLSCGGSGFTFNNAWMNWVRQAPGKGLEWVGRIKGKTDGGTADYAAPVKGRFTISRDYSKNTLYLQMNSLTTEDTAVYYCNTDLPYYYGSGRYSGMDVWGQGTTVTVSSASTKGPSVFPLAPCSRSTSESTAALGCLVKDYFPEPVTVSWNSGALTSGVHTFPAVLQSSGLYSLSSVVTVPSSNFGTQTYTCNVDHKPSNTKVDKTVERKCCVECPPCPAPPVAGPSVFLFPPKPKDTLMISRTPEVTCVVVDVSHEDPEVQFNWYVDGVEVHNAKTKPREEQFNSTFRVVSVLTVVHQDWLNGKEYKCKVSNKGLPASIEKTISKTKGQPREPQVYTLPPSREEMTKNQVSLTCLVKGFYPSDIAVEWESNGQPENNYKTTPPMLDSDGSFFLYSKLTVDKSRWQQGNVFSCSVMHEALHNHYTQKSLSLSPGK light: EIVLTQSPATLSLSPGERATLSCRASQSVSSYLAWYQQKPGQAPRLLIYDASNRATGIPARFSGSGSGTDFTLTISSLEPEDFAVYYCQQRSNTFGPGTKVDIK | binds |
| multivalent antibody 341VL36-CH1-H-CH2-CH3-341-CH1 (bispecific antibody, Entry probably still carries the signal peptide; Tested as culture supernatant; not shown: human immunoglobulin kappa light chain constant region) heavy: EVQLVESGGGLVKPGGSLRLSCGGSGFTFNNAWMNWVRQAPGKGLEWVGRIKGKTDGGTADYAAPVKGRFTISRDYSKNTLYLQMNSLKTEDTGVYYCTTYLPYYYGSERWSGMDVWGQGTTVTVSSASTKGPSVFPLAPCSRSTSESTAALGCLVKDYFPEPVTVSWNSGALTSGVHTFPAVLQSSGLYSLSSVVTVPSSNFGTQTYTCNVDHKPSNTKVDKTVERKCCVECPPCPAPPVAGPSVFLFPPKPKDTLMISRTPEVTCVVVDVSHEDPEVQFNWYVDGVEVHNAKTKPREEQFNSTFRVVSVLTVVHQDWLNGKEYKCKVSNKGLPASIEKTISKTKGQPREPQVYTLPPSREEMTKNQVSLTCLVKGFYPSDIAVEWESNGQPENNYKTTPPMLDSDGSFFLYSKLTVDKSRWQQGNVFSCSVMHEALHNHYTQKSLSLSPGKGSQVQLQQSGPGLVKPSQTLSLTCAISGDSVSSNSATWNWIRQSPSRDLEWLGRTYYRSKWYRDYVGSVKSRIIINPDTSNNQFSLQLNSVTPEDTAIYYCTRAQWLGGDYPYYYSMDVWGQGTTVTVSSASTKGPSVFPLAPCSRSTSESTAALGCLVKDYFPEPVTVSWNSGALTSGVHTFPAVLQSSGLYSLSSVVTVPSSNFGTQTYTCNVDHKPSNTKVDKTV light: EIVLTQSPATLSLSPGERATLSCRASQSVSSYLAWYQQKPGQAPRLLIYDASNRATGIPARFSGSGSGTDFTLTISSLEPEDFAVYYCQQRSNTFGPGTKVDIK | binds |
| DVD341VL34-341 (bispecific antibody, human IgG2, kappa, Comparison molecule with a short linker, after Wu et al. Entries probably still carry signal peptides; Tested as culture supernatant) heavy: EVQLVESGGGLVKPGGSLRLSCGGSGFTFNNAWMNWVRQAPGKGLEWVGRIKGKTDGGTADYAAPVKGRFTISRDYSKNTLYLQMNSLTTEDTAVYYCNTDLPYYYGSGRYSGMDVWGQGTTVTVSSASTKGPQVQLQQSGPGLVKPSQTLSLTCAISGDSVSSNSATWNWIRQSPSRDLEWLGRTYYRSKWYRDYVGSVKSRIIINPDTSNNQFSLQLNSVTPEDTAIYYCTRAQWLGGDYPYYYSMDVWGQGTTVTVSSASTKGPSVFPLAPCSRSTSESTAALGCLVKDYFPEPVTVSWNSGALTSGVHTFPAVLQSSGLYSLSSVVTVPSSNFGTQTYTCNVDHKPSNTKVDKTVERKCCVECPPCPAPPVAGPSVFLFPPKPKDTLMISRTPEVTCVVVDVSHEDPEVQFNWYVDGVEVHNAKTKPREEQFNSTFRVVSVLTVVHQDWLNGKEYKCKVSNKGLPASIEKTISKTKGQPREPQVYTLPPSREEMTKNQVSLTCLVKGFYPSDIAVEWESNGQPENNYKTTPPMLDSDGSFFLYSKLTVDKSRWQQGNVFSCSVMHEALHNHYTQKSLSLSPGK light: not shown | binds |

Second part, the binder after the results:

| binding result | Binder |
| --- | --- |
| no binding | anti-CD40 antibody 341-1-19 (antibody, IgG2, V domains shown, IgG2; Tested as culture supernatant; also called antibody produced by hybridoma KM341-1-19; not shown: human immunoglobulin kappa light chain constant region; kappa inferred from the anti-human κ detecti) VH: QVQLQQSGPGLVKPSQTLSLTCAISGDSVSSNSATWNWIRQSPSRDLEWLGRTYYRSKWYRDYVGSVKSRIIINPDTSNNQFSLQLNSVTPEDTAIYYCTRAQWLGGDYPYYYSMDVWGQGTTVTVSS VL: EIVLTQSPATLSLSPGERATLSCRASQSVSSYLAWYQQKPGQAPRLLIYDASNRATGIPARFSGSGSGTDFTLTISSLEPEDFAVYYCQQRSNTFGPGTKVDIK |
| binds | multivalent antibody 341VL36-CH1-341 (bispecific antibody, Anti-CD28 site N-terminal, anti-CD40 site C-terminal; Entry probably still carries the signal peptide; Tested as culture supernatant; not shown: human immunoglobulin kappa light chain constant region) heavy: EVQLVESGGGLVKPGGSLRLSCGGSGFTFNNAWMNWVRQAPGKGLEWVGRIKGKTDGGTADYAAPVKGRFTISRDYSKNTLYLQMNSLKTEDTGVYYCTTYLPYYYGSERWSGMDVWGQGTTVTVSSASTKGPSVFPLAPCSRSTSESTAALGCLVKDYFPEPVTVSWNSGALTSGVHTFPAVLQSSGLYSLSSVVTVPSSNFGTQTYTCNVDHKPSNTKVDKTVGSQVQLQQSGPGLVKPSQTLSLTCAISGDSVSSNSATWNWIRQSPSRDLEWLGRTYYRSKWYRDYVGSVKSRIIINPDTSNNQFSLQLNSVTPEDTAIYYCTRAQWLGGDYPYYYSMDVWGQGTTVTVSSASTKGPSVFPLAPCSRSTSESTAALGCLVKDYFPEPVTVSWNSGALTSGVHTFPAVLQSSGLYSLSSVVTVPSSNFGTQTYTCNVDHKPSNTKVDKTVERKCCVECPPCPAPPVAGPSVFLFPPKPKDTLMISRTPEVTCVVVDVSHEDPEVQFNWYVDGVEVHNAKTKPREEQFNSTFRVVSVLTVVHQDWLNGKEYKCKVSNKGLPASIEKTISKTKGQPREPQVYTLPPSREEMTKNQVSLTCLVKGFYPSDIAVEWESNGQPENNYKTTPPMLDSDGSFFLYSKLTVDKSRWQQGNVFSCSVMHEALHNHYTQKSLSLSPGK light: EIVLTQSPATLSLSPGERATLSCRASQSVSSYLAWYQQKPGQAPRLLIYDASNRATGIPARFSGSGSGTDFTLTISSLEPEDFAVYYCQQRSNTFGPGTKVDIK |
| binds | multivalent antibody 341-CH1-341VL36 (bispecific antibody, Anti-CD40 site N-terminal, anti-CD28 site C-terminal; Entry probably still carries the signal peptide; Tested as culture supernatant; not shown: human immunoglobulin kappa light chain constant region) heavy: QVQLQQSGPGLVKPSQTLSLTCAISGDSVSSNSATWNWIRQSPSRDLEWLGRTYYRSKWYRDYVGSVKSRIIINPDTSNNQFSLQLNSVTPEDTAIYYCTRAQWLGGDYPYYYSMDVWGQGTTVTVSSASTKGPSVFPLAPCSRSTSESTAALGCLVKDYFPEPVTVSWNSGALTSGVHTFPAVLQSSGLYSLSSVVTVPSSNFGTQTYTCNVDHKPSNTKVDKTVGSEVQLVESGGGLVKPGGSLRLSCGGSGFTFNNAWMNWVRQAPGKGLEWVGRIKGKTDGGTADYAAPVKGRFTISRDYSKNTLYLQMNSLKTEDTGVYYCTTYLPYYYGSERWSGMDVWGQGTTVTVSSASTKGPSVFPLAPCSRSTSESTAALGCLVKDYFPEPVTVSWNSGALTSGVHTFPAVLQSSGLYSLSSVVTVPSSNFGTQTYTCNVDHKPSNTKVDKTVERKCCVECPPCPAPPVAGPSVFLFPPKPKDTLMISRTPEVTCVVVDVSHEDPEVQFNWYVDGVEVHNAKTKPREEQFNSTFRVVSVLTVVHQDWLNGKEYKCKVSNKGLPASIEKTISKTKGQPREPQVYTLPPSREEMTKNQVSLTCLVKGFYPSDIAVEWESNGQPENNYKTTPPMLDSDGSFFLYSKLTVDKSRWQQGNVFSCSVMHEALHNHYTQKSLSLSPGK light: EIVLTQSPATLSLSPGERATLSCRASQSVSSYLAWYQQKPGQAPRLLIYDASNRATGIPARFSGSGSGTDFTLTISSLEPEDFAVYYCQQRSNTFGPGTKVDIK |
| binds | DVD341VL36-341 (bispecific antibody, human IgG2, kappa, Comparison molecule with a short linker, after Wu et al. Entries probably still carry signal peptides; Tested as culture supernatant) heavy: EVQLVESGGGLVKPGGSLRLSCGGSGFTFNNAWMNWVRQAPGKGLEWVGRIKGKTDGGTADYAAPVKGRFTISRDYSKNTLYLQMNSLKTEDTGVYYCTTYLPYYYGSERWSGMDVWGQGTTVTVSSASTKGPQVQLQQSGPGLVKPSQTLSLTCAISGDSVSSNSATWNWIRQSPSRDLEWLGRTYYRSKWYRDYVGSVKSRIIINPDTSNNQFSLQLNSVTPEDTAIYYCTRAQWLGGDYPYYYSMDVWGQGTTVTVSSASTKGPSVFPLAPCSRSTSESTAALGCLVKDYFPEPVTVSWNSGALTSGVHTFPAVLQSSGLYSLSSVVTVPSSNFGTQTYTCNVDHKPSNTKVDKTVERKCCVECPPCPAPPVAGPSVFLFPPKPKDTLMISRTPEVTCVVVDVSHEDPEVQFNWYVDGVEVHNAKTKPREEQFNSTFRVVSVLTVVHQDWLNGKEYKCKVSNKGLPASIEKTISKTKGQPREPQVYTLPPSREEMTKNQVSLTCLVKGFYPSDIAVEWESNGQPENNYKTTPPMLDSDGSFFLYSKLTVDKSRWQQGNVFSCSVMHEALHNHYTQKSLSLSPGK light: not shown |
